Laboratory results reported in US20250066450A1 (LASK PHARMA, published 2025).

Molecular target: T1, BMP10 (UniProt O95393 317-424)
T1 sequence (looked up): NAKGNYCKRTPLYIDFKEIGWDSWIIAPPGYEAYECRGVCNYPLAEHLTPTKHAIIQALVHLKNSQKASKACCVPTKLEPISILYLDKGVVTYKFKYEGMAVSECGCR
Assay: Biacore (SPR); Fc fusion captured with anti-Fc antibody, ligand injected (FIG. 3B)
Protocol: A Biacore™-based binding assay was used to compare ligand binding selectivity of the ALK6 variant-Fc dimeric complex (e.g., SEQ ID NO: 46) described above with that of ALK6 wt-Fc complexes (SEQ ID NO: 49). The Fc dimeric complexes were independently captured onto the system using an anti-Fe antibody. Ligands were injected and allowed to flow over the captured receptor protein.

B1: ALK6-Fc fusion polypeptide (SEQ ID NO: 89) (Fc fusion)
chain: KKEDGESTAPTPRPKVLRCYCSGHCPEDSVNNICSTDGYCFTMIEEDDSGLPVVTSGCLKLEGSDFQCRDTPIPHQRRSIECCTERNECNKDLHPTLPPVVIGPFFDGSIRTGGGGSGGGGSGGGGSGGGGSTHTCPPCPAPEAAGGPSVFLFPPKPKDTLMISRTPEVTCVVVDVSHEDPEVKFNWYVDGVEVHNAKTKPREEQYNSTYRVVSVLTVLHQDWLNGKEYKCKVSNKALPAPIEKTISKAKGQPREPQVYTLPPSREEMTKNQVSLTCLVKGFYPSDIAVEWESNGQPENNYKTTPPVLDSDGSFFLYSKLTVDKSRWQQGNVFSCSVMHEALHNHYTQKSLSLSPG
Does B1 bind?
Result: no binding
